Test results as given in paper PMC6399350, “Heterologous calcium-dependent inactivation of Orai1 by neighboring TRPV1 channels modulates cell migration and wound healing” (Communications Biology, 2019).
No end group written: not given here.

Tests used:
[1] = molecular target: T1, Orai1-COOH-DsRed (carboxyl terminus of Orai1 fused to the red fluorescent protein) (human); test: peptide or protein array; TIRFM microarray; Orai1-COOH-DsRed printed on poly-D-lysine coated glass as bait, ANK domains fused to GFP in solution at 1 uM, 3 min incubation, wash with saline, GFP fluorescence read; settings: both partners purified
T1 construct: also called Orai1-dsRED-COOH peptide; source: spotted on the microarray slide; not shown: DsRed, C-terminal, kept
T1 chain: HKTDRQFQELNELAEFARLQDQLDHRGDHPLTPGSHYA

[2] = molecular target: T2, ANK1 domain printed on the microarray slide as bait (rat); test: peptide or protein array; TIRFM microarray; ANK1 domain printed on poly-D-lysine coated glass as bait, Orai1 terminus fused to GFP in solution, GFP fluorescence read; settings: both partners purified
T2 construct: ankyrin domain 1 of rat TRPV1, 110-152; The methods say 'the ANK1 domain (see above)', which points to the ANK1-GFP fusion; Kept apart from m6 for that reason; source: purified peptide, printed on glass microarray slides coated with poly-D-lysine
T2 chain: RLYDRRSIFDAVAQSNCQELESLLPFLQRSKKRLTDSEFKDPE

B1: ANK3-GFP (third ankyrin domain of rat TRPV1 fused to GFP) (domain or fragment)
chain: KGQTALHIAIERRNMTLVTLLVENGADVQAAANGDFFKKTKGRPGFY
notes: ankyrin domain 3 of rat TRPV1, 200-246; source: HEK293, transfected, in lysate (co-IP); HEK293 in suspension, sonicated, immunoprecipitated with anti-GFP antibody (microarray); not shown: enhanced GFP, C-terminal, kept
- binding result [1]: binds

B2: ANK1-GFP (first ankyrin domain of rat TRPV1 fused to GFP) (domain or fragment)
chain: RLYDRRSIFDAVAQSNCQELESLLPFLQRSKKRLTDSEFKDPE
notes: ankyrin domain 1 of rat TRPV1, 110-152; source: HEK293, transfected, in lysate (co-IP); HEK293 in suspension, sonicated, immunoprecipitated with anti-GFP antibody (microarray); not shown: enhanced GFP, C-terminal, kept
- binding result [1]: binds

B3: ANK4-GFP (fourth ankyrin domain of rat TRPV1 fused to GFP) (domain or fragment)
chain: FGELPLSLAACTNQLAIVKFLLQNSWQPADISARDS
notes: ankyrin domain 4 of rat TRPV1, 247-282; source: HEK293 in suspension, sonicated, immunoprecipitated with anti-GFP antibody (microarray); not shown: enhanced GFP, C-terminal, kept
- binding result [1]: binds

B4: Orai1-COOH-GFP (carboxyl terminus of Orai1 fused to GFP) (domain or fragment, human)
chain: HKTDRQFQELNELAEFARLQDQLDHRGDHPLTPGSHYA
modifications: also: fused to GFP
notes: source: HEK293 in suspension, sonicated, immunoprecipitated with anti-GFP antibody (procedure as for the ANK-GFP fusions); not shown: GFP, C-terminal, kept
- binding result [2]: binds

B5: ANK2-GFP (second ankyrin domain of rat TRPV1 fused to GFP) (domain or fragment)
chain: TGKTCLLKAMLNLHNGQNDTIALLLDVARKTDSLKQFVNASYTDSYY
notes: ankyrin domain 2 of rat TRPV1, 153-199; source: HEK293, transfected, in lysate (co-IP); HEK293 in suspension, sonicated, immunoprecipitated with anti-GFP antibody (microarray); not shown: enhanced GFP, C-terminal, kept
- binding result [1]: binds
